“Also recorded” adds a separate entry of the source.
Experiments:
[1] = target: tau peptide incorporating the phosphorylated threonine 231 site (tau231P), Biotin-KKVAVVR(phospho)TPPKSPSS; test: estimated from other studies, method not described
[2] = target: APP668P (APP peptide phosphorylated at threonine 668) (Homo sapiens, UniProt P05067); test: ELISA binding to immobilized biotinylated APP668P phosphopeptide; details: synthetic phosphopeptide
Text: It is also possible to practice the method described above using a phosphopeptide corresponding to the sequence of APP. The sequence of one such peptide is shown below: • Biotin-VEVDAAV(phospho)TPEERHLS (SEQ ID NO. 2) In place of the TG3 antibody, a mAb specific for the phosphothreonine 668 of APP is used. The same antibody detection reagents and methods are used as described above. Examples of antibodies useful in this regard include but are not limited to GF1, GF3, GF5, GF7, GF12, GF25, and GF31. Polyclonal antibodies reactive against substantially similar phosphopeptides may also be useful.
Assays have been established in which the tau and APP phosphopeptides are biotinylated and immobilized on Neutravidin-coated 96 well ELISA plates. […] Concentrations of GF31 in the 5 nM range give a robust signal on such plates, and the binding is very sensitive to the presence of an antibody, TG3, which has a high affinity for the tau peptide (FIG. 5B). Duplicate assays are shown in FIG. 5B, illustrating the reproducibility of the assay.

[3] = target: tau231P (tau peptide phosphorylated at threonine 231) (Homo sapiens, UniProt P10636); test: ELISA binding to immobilized biotinylated tau231P phosphopeptide; details: synthetic phosphopeptide
Method: To identify compounds which bind to tau peptides phosphorylated on threonine 231, a 96 well or […] ELISA plate is coated with Neuravidin in 20 mM K2HPO4/10 mM KH2PO4, 1 mM EDTA, 0.8% NaCl, 0.01% NAN3, pH 7.2, using a protein concentration of 5 micrograms per ml. All volumes in ELISA plates are 50 microliters, except for storage, where 200 microliters is added. After coating, plates are incubated with 10 mM tris base, 150 mM NaCl, pH 7.4 CIBS) containing 2% bovine serum albumin (BSA) and stored at 4 °C. Plates prepared this way are stable for several weeks.
A peptide derived from the protein tau was utilized, as shown below: • Biotin-KKVAVR(phospho)TPPKSPSS (SEQ D NO. 1) The peptide was diluted to a concentration of 0.5 micromolar in TBS containing 2% BSA, and 50 microliters per well were added followed by incubation at room temperature for one hour. Unbound peptide is washed off with TBS containing 0.5% Tween 20. […] Bound antibody is detected by incubation with a solution of goat anti-mouse Ig or goat anti-rabbit Ig coupled to horse radish peroxidase (HRP) (2 micrograms per ml in TBS containing 1% BSA) for one hour, and excess antibody is removed by washing with TBS containing 0.05% Tween 20. HRP activity is determined by addition of a substrate capable of generating a colored or fluorescent product (i.e., ABTS Substrate solution (BioRad Laboratories, Hercules, Calif.)). […]

[4] = test system: non-phosphorylated tau and APP peptides; test: Binding to the respective non-phosphorylated tau and APP peptides

Row | Substance | Kd [1] [nM] | binding / recognition of APP668P phosphopeptide [2] | binding / recognition of tau231P phosphopeptide [3] | binding to the respective non-phosphorylated peptides [4]
1 | monoclonal antibody TG3 | 25 |  |  | 
2 | Pin1: prolyl isomerase which binds phosphorylated serine/threonine-proline bonds in proteins |  | high affinity; also recorded: binds | high affinity; also recorded: binds | does not bind

Source: patent US20050221391A1, “Reagents and methods for identification of binding agents” (priority 2000, published 2005)
